pKd, pKi: −log10 of the molar value.

For orientation: pKi means the Ki on a negative log10 scale, so that one unit is a factor of ten. Usually pKd stands for the negative decadic logarithm of the Kd, by convention in mol/L.

Assay [1] deals with ΔN LSD1 (171–852)–CoREST (286–482) complex (human) (UniProt O60341).
Assay [2] has the same target. Kind of assay: enzyme inhibition kinetics (peroxidase-coupled demethylase assay); 0.3 μM ΔN LSD1-CoREST, 50 mM Hepes (Na) pH 7.5, 25 °C; H3K4me2 peptide (1-21) substrate 10-60 μM; NLS 0-10 μM or NLSp∗ 0-100 μM; fit to competitive inhibition; Ki called apparent in the legend.
Assay [3] concerns the target biotinylated recombinant human nucleosome (unmodified, 147 bp 601 DNA) (human) (UniProt P68431). Kind of assay: SPR; biotinylated recombinant human nucleosomes (147 bp 601 DNA) immobilised on a streptavidin chip SA at 4000-5000 RU; LSD1-CoREST injected at 5-2000 nM (full length up to 500 nM), 40 μl/min; Biacore 3000, 298 K; running buffer 10 mM Tris, 100 mM NaCl, 1 mM EDTA, 2 mM TCEP, 0.005% Tween 20, pH 7.4; apparent Kd. For orientation: Surface plasmon resonance follows binding to a sensor surface in real time, without labels.

Assay [4] has as its target biotinylated NT-LSD1 (residues 100–151) (human). Kind of assay: SPR; biotinylated NT-LSD1 immobilised at 560 RU; ΔN LSD1-CoREST injected at 25-1000 nM, 40 μl/min, in running buffer.

Take NLS peptide (LSD1 aa 107–120): the IC50 of inhibition of ΔN LSD1-CoREST demethylation of H3K4me2 nucleosomes (quantitative Western blot, NLS peptide 10-400 μM) in assay [1] is 30.4 µM. In addition, the pKi in assay [2] is 5.48.
For “full-length LSD1 (1–852)-CoREST (286–482) complex (from UniProt O60341 1-852)”, the pKd in assay [3] was 6.99.
As for “phosphomimic NLS peptide (aa 107–120, T110D/S111D)”, in assay [2], the negative logarithm of the Ki (pKi) is 4.41.
For “ΔN LSD1 (171–852)–CoREST (286–482) complex (from UniProt O60341 171-852)”, the pKd in assay [4] is 6.24; in assay [3], 5.75.

The values are drawn from PMC11388019, “Autoregulatory mechanism of enzyme activity by the nuclear localization signal of lysine-specific demethylase 1 [drawing 1]” (The Journal of Biological Chemistry, 2024).
